# B1: COV2-2449 IgG (antibody, V domains shown)
# VH: QVQLVESGGGVVQPGRSLRLSCATSGFTFSSFALHWVRQAPGKGLEWVTVISDDGNNKYYVDSVKGRFTISRDNSKNTLFLQMNSLRVEDTAIYYCARASYNSNWSIGEYFRDWGQGTLVTVSS
# VL: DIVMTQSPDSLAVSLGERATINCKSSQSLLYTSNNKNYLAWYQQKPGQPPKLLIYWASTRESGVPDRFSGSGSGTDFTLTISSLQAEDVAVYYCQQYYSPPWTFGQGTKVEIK
# Molecular target: OC43 spike protein (FL-GCN4-Avi-His, 2P, biotinylated) (human coronavirus OC43, strain of …, UniProt P36334, stabilised, biotin on the Avi tag)
# Test: ELISA
# Conditions: both partners purified
binder,measurement,value
B1,binding result,binds

# Reference: PMC9596371 (Nature Chemical Biology, 2022)
